Columns and labels:
[1] = biological target: Signal peptide CD28, Stalk CD8α; test: flow cytometry of T cells nucleofected with the CAR construct, Day 1, Protein L-biotin + SA-APC against CD3-FITC; the filing reports it as CAR surface expression (legend: the short CD8α stalk does not permit surface expression)
[2] = biological target: Signal peptide CD8α, Stalk CD8α; test: as above
[3] = biological target: Signal peptide Ig Kappa, Stalk CD8α; test: as above
[4] = biological target: Signal peptide mIgVH, Stalk CD8α; test: as above
[5] = biological target: T1, Extracellular domain (ECD) of ROR1 fused to human Fc region (UniProt Q01973 30-406, limits assumed); test: SPR, Biacore 3000; ROR1 ECD-human Fc on CM5 chip, antibody in solution
T1 construct: extracellular domain; also called ROR1-Fc; ROR1-FC; not shown: human Fc region
Description: Different concentrations of humanized antibodies were injected in solution phase and data was analyzed using BIAevaluation to calculate Kd of the antibodies.

[6] = biological target: Extracellular domain (ECD) of ROR1 fused to human Fc region (UniProt Q01973); test: as above
[7] = biological target: Extracellular domain (ECD) of ROR1 fused to human Fc region (UniProt Q01973); test: ROR1-Fc affinity of the construct's binding domain; method not given
ROR1-His = biological target: T2, ROR1-His (UniProt Q01973 30-403, limits assumed); test: ROR1-His affinity of the construct's binding domain; method not given
T2 construct: The construct is described nowhere; not shown: His tag
T2 sequence (Q01973 30-403 limits assumed): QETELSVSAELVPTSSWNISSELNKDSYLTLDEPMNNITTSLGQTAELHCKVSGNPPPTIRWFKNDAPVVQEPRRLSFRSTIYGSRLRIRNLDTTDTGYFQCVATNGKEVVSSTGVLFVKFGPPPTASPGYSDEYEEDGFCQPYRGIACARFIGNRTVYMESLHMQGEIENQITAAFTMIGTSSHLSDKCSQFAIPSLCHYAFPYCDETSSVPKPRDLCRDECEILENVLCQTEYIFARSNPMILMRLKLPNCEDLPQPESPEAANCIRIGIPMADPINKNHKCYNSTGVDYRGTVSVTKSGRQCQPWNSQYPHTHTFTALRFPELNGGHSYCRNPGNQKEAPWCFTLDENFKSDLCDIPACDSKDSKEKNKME

T1 sequence (Q01973 30-406 limits assumed): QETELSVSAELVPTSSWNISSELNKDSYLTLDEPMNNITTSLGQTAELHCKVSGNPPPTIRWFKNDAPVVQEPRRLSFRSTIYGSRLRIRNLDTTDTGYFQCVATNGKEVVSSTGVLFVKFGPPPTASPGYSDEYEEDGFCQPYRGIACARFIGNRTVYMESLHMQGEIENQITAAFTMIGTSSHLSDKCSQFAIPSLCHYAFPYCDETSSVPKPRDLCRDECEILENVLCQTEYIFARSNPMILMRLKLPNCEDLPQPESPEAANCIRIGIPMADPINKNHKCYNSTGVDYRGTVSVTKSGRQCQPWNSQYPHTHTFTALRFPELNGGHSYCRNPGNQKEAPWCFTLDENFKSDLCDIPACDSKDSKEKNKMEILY
Extracellular domain (ECD) of ROR1 fused to human Fc region (UniProt Q01973), sequence (Q01973 30-406 limits assumed): as above

Row | Molecule | Kd [5] [nM] | other results
1 | Protein L-biotin |  | fraction in quadrant Q6 (Protein L-biotin-SA-APC+, CD3-FITC+) [1]: 2.6; fraction in quadrant Q6 (Protein L-biotin-SA-APC+, CD3-FITC+) [2]: 1.88; fraction in quadrant Q6 (Protein L-biotin-SA-APC+, CD3-FITC+) [3]: 2.53; fraction in quadrant Q6 (Protein L-biotin-SA-APC+, CD3-FITC+) [4]: 2.13
2 | Clone 18 (antibody, V domains shown, Variable regions fused to mouse constant regions (chimeric mouse IgG1 mAb) for SPR; also called hROR1 VH_18 / hROR1 VL_18) VH: EVQLVESGGGLVQPGGSLRLSCSASGFTFSSYAMSWVRQVPGKGLVWISSISRGGTTYYADSVRGRFIISRDNAKNTLYLEMNNLRGEDTAVYYCARYDYDGYYAMDYWGQGTLVTVSS VL: DIQLTQSPDSLAVSLGERATINCKASPDINSYLSWYQQRPGQPPRLLIHRANRLVDGVPDRFSGSGFGTDFTLTITSLQAEDVAIYYCLQYDEFPYTFGQGTKLEIK | 12.7 | 
3 | Clone 04 (antibody, V domains shown, Variable regions fused to mouse constant regions (chimeric mouse IgG1 mAb) for SPR; also called hROR1 VH_04 / hROR1 VL_04) VH: EVQLVESGGGLVQPGGSLRLSCAASGFTFSSYAMSWVRQAPGKGLEWVSAISRGGTTYYADSVKGRFTISRDNSKNTLYLQMNSLRAEDTAVYYCGRYDYDGYYAMDYWGQGTLVTVSS VL: DIQMTQSPSSLSASVGDRVTITCQASPDINSYLNWYQQKPGKAPKLLIYRANNLETGVPSRFSGSGSGTDFTLTISSLQPEDIATYYCLQYDEFPYTFGQGTKLEIK | ~55 | 
4 | Hum ROR1_07VH_(G4S)3x_VL_05 (antibody, mouse IgG1, V domains shown, The name reads as an scFv with a (G4S)3 linker; The method text says variable regions were fused to mouse constant regions (chimeric mouse IgG1); VH/VL are tied by the numbers in the name) VH: EVQLVESGGGLVQPGGSLRLSCAASGFTFSSYAIIWVRQAPGKGLEWVARISRGGTTRYADSVKGRFTISADTSKETAYLQMNSLRAEDTAVYYCGRYDYDGYYAMDYWGQGTLVTVSS VL: DIQMTQSPSSLSASVGDRVTITCKASPDINSYLSWYQQKPGKAPKLLIYRANRLVDGVPSRFSGSGSGTDFTLTISSLQPEDIATYYCLQYDEFPYTFGQGTKLEIK | 7.16 | 
5 | Hum ROR1_18VH_(G4S)3x_VL_04 (antibody, mouse IgG1, V domains shown, The name reads as an scFv with a (G4S)3 linker; The method text says variable regions were fused to mouse constant regions (chimeric mouse IgG1); VH/VL are tied by the numbers in the name) VH: EVQLVESGGGLVQPGGSLRLSCSASGFTFSSYAMSWVRQVPGKGLVWISSISRGGTTYYADSVRGRFIISRDNAKNTLYLEMNNLRGEDTAVYYCARYDYDGYYAMDYWGQGTLVTVSS VL: DIQMTQSPSSLSASVGDRVTITCQASPDINSYLNWYQQKPGKAPKLLIYRANNLETGVPSRFSGSGSGTDFTLTISSLQPEDIATYYCLQYDEFPYTFGQGTKLEIK |  | Kd [6]: 0.372 nM; Kd [7]: 0.271 nM; Kd (ROR1-His): 0.372 nM
6 | Hum ROR1_07VH_(G4S)3x_VL_18 (antibody, mouse IgG1, V domains shown, The name reads as an scFv with a (G4S)3 linker; The method text says variable regions were fused to mouse constant regions (chimeric mouse IgG1); VH/VL are tied by the numbers in the name) VH: EVQLVESGGGLVQPGGSLRLSCAASGFTFSSYAIIWVRQAPGKGLEWVARISRGGTTRYADSVKGRFTISADTSKETAYLQMNSLRAEDTAVYYCGRYDYDGYYAMDYWGQGTLVTVSS VL: DIQLTQSPDSLAVSLGERATINCKASPDINSYLSWYQQRPGQPPRLLIHRANRLVDGVPDRFSGSGFGTDFTLTITSLQAEDVAIYYCLQYDEFPYTFGQGTKLEIK | 11.7 | 
7 | Clone 07 (antibody, V domains shown, Variable regions fused to mouse constant regions (chimeric mouse IgG1 mAb) for SPR; also called hROR1 VH_07 / hROR1 VL_07) VH: EVQLVESGGGLVQPGGSLRLSCAASGFTFSSYAIIWVRQAPGKGLEWVARISRGGTTRYADSVKGRFTISADTSKETAYLQMNSLRAEDTAVYYCGRYDYDGYYAMDYWGQGTLVTVSS VL: DIQMTQSPSSLSASVGDRVTITCRASPDINSYVAWYQQKPGKAPKLLIYRANFLESGVPSRFSGSRSGTDFTLTISSLQPEDFATYYCLQYDEFPYTFGQGTKVEIK | ~90 | 

Further lines, with some results ahead:

Row | Kd [5] [nM] | Molecule | other results
8 | 3.87 | Hum ROR1_18VH_(G4S)3x_VL_07 (antibody, mouse IgG1, V domains shown, The name reads as an scFv with a (G4S)3 linker; The method text says variable regions were fused to mouse constant regions (chimeric mouse IgG1); VH/VL are tied by the numbers in the name) VH: EVQLVESGGGLVQPGGSLRLSCSASGFTFSSYAMSWVRQVPGKGLVWISSISRGGTTYYADSVRGRFIISRDNAKNTLYLEMNNLRGEDTAVYYCARYDYDGYYAMDYWGQGTLVTVSS VL: DIQMTQSPSSLSASVGDRVTITCRASPDINSYVAWYQQKPGKAPKLLIYRANFLESGVPSRFSGSRSGTDFTLTISSLQPEDFATYYCLQYDEFPYTFGQGTKVEIK | 
9 | 1.6 | Hum ROR1_18VH_(G4S)3x_VL_16 (antibody, mouse IgG1, V domains shown, The name reads as an scFv with a (G4S)3 linker; The method text says variable regions were fused to mouse constant regions (chimeric mouse IgG1); VH/VL are tied by the numbers in the name) VH: EVQLVESGGGLVQPGGSLRLSCSASGFTFSSYAMSWVRQVPGKGLVWISSISRGGTTYYADSVRGRFIISRDNAKNTLYLEMNNLRGEDTAVYYCARYDYDGYYAMDYWGQGTLVTVSS VL: DIQMTQSPSSLSASVGDRVTITCKASPDINSYLNWYQQKPGKAPKVLIYRANRLVDGVPSRFSGSGSGTDYTLTISSLQPEDFATYYCLQYDEFPYTFGQGTKVEIK | 
